Laboratory results taken from publication PMC3328597.

Molecular target: T1, dSLBP P231G RPD (Drosophila, UniProt Q9VAN6 173-276, P231G)
T1 sequence: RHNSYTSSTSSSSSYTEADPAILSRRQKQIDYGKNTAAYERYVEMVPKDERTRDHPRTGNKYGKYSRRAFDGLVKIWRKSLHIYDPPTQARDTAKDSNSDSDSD
Assay: NMR

GGCCAAAGGCCCUUUUCAGGGCCACCCA (structured_RNA) [SL28-CG]: binds.
